The text below walks through data of publication PMC2363969, “gp100/pmel17 and tyrosinase encode multiple epitopes recognized by Th1-type CD4+T cells” (British Journal of Cancer, 2001).

As a reminder, the IC50 is the concentration at which inhibition is half-maximal. A higher IC50 goes with lower potency.

One assay deals with HLA-DRB1*0404 (human). As to the kind of experiment: radioligand binding.
The next assay deals with HLA-DRB1*0401 (human). As to the kind of experiment: radioligand binding.

As for tyrosinase 365-381D (peptide), the IC50 amounted to 31 nM with HLA-DRB1*0404 (human) and 17 nM with HLA-DRB1*0401 (human).
